The source of these data is patent US20220064248A1, “PHARMACEUTICAL COMPOSITION INCLUDING INSULIN AND GLUCAGON” (HANMl PHARM. CO., LTD, priority 2018, published 2022).

Bridges are numbered along the chain shown (N, C = ends). Where no end group is shown, it is not given here. [ ]: non-standard residue; d: D form. Aib = CC(C)(N)C(=O)O

Chain of glucagon receptors (P47871 26-477): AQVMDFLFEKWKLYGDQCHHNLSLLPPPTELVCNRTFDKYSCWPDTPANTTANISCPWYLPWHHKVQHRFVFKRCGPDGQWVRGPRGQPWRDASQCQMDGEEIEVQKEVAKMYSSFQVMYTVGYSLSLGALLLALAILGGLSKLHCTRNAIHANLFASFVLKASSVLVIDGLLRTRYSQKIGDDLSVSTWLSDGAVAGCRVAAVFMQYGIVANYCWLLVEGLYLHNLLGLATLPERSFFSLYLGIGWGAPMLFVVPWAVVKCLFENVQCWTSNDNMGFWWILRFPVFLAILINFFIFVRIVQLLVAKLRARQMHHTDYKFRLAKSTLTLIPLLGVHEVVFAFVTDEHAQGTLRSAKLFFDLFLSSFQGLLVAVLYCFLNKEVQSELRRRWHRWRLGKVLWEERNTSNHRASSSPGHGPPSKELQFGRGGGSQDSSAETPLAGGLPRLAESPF

The assay has as its target glucagon receptors (Homo sapiens, UniProt P47871). The assay can be described thus: In vitro activity of glucagon analogs relative to native glucagon. Type of assay: cell-based. Particulars: relative to native glucagon (SEQ ID NO: 1). As for the experimental part:
The glucagon analogs were synthesized with reference to Korean Patent Publication Nos. 10-2016-0082482, 10-2017-003466, and 10-2018-0002544, and pl and in vitro activity thereof were measured.
Consider “-SQGTFTSDYSKYLDECRAKEFVQWLMNT (lactam 15-19; also: name begins with '-' (N-terminal residue not shown)) [SEQ ID NO: 32]”, for which the “In vitro activity (relative activity to SEQ ID NO: 1, %)” value is 0.7%.

In the case of “HSQGTFTSDYSKYLDCDRAQDFVQWLMNT (glucagon derivative) [SEQ ID NO: 2]”, the “In vitro activity (relative activity to SEQ ID NO: 1, %)” value turned out to be 0.6%.

Take “HSQGTFTSDYSKYLDCERAQDFVQWLMNT (glucagon derivative) [SEQ ID NO: 3]”: the “In vitro activity (relative activity to SEQ ID NO: 1, %)” value turned out to be 6.1%.

Regarding “HSQGTFTSDYSKYLDSCDAQDFVQWLMNT (glucagon derivative) [SEQ ID NO: 4]”, the “In vitro activity (relative activity to SEQ ID NO: 1, %)” value is listed as less than 0.1%.

Consider “HSQGTFTSDYSKYLDSCEADDFVQWLMNT (glucagon derivative) [SEQ ID NO: 6]”, for which the “In vitro activity (relative activity to SEQ ID NO: 1, %)” value is on record as less than 0.1%.

“HSQGTFTSDYSKYLDSCEAQDFVQWLMNT (glucagon derivative) [SEQ ID NO: 5]”: the “In vitro activity (relative activity to SEQ ID NO: 1, %)” value was determined as 0.3%.

With “WXQGTFTSDYSKCLDERRAKDFVQWLMNT (W[Aib]QGTFTSDYSKCLDERRAKDFVQWLMNT; lactam 16-20) [SEQ ID NO: 30]”, the “In vitro activity (relative activity to SEQ ID NO: 1, %)” value is listed as 0.3%.

As for “WXQGTFTSDYSKYCDERRAKEFVQWLMNT (W[Aib]QGTFTSDYSKYCDERRAKEFVQWLMNT; lactam 16-20) [SEQ ID NO: 34]”, the “In vitro activity (relative activity to SEQ ID NO: 1, %)” value stood at 0.2%.

For the substance “WXQGTFTSDYSKYLDECRAKDFVQWLMNT (W[Aib]QGTFTSDYSKYLDECRAKDFVQWLMNT; lactam 16-20) [SEQ ID NO: 26]”, the “In vitro activity (relative activity to SEQ ID NO: 1, %)” value is listed as 1.0%.

With “WXQGTFVSDYSKYLDECRAKDFVQWLMNT (W[Aib]QGTFVSDYSKYLDECRAKDFVQWLMNT; lactam 16-20) [SEQ ID NO: 28]”, the “In vitro activity (relative activity to SEQ ID NO: 1, %)” value is on record as less than 0.1%.

As for “YSQGTFTSDYSKYLDSCEADDFVQWLMNT (glucagon derivative) [SEQ ID NO: 7]”, the “In vitro activity (relative activity to SEQ ID NO: 1, %)” value was less than 0.1%.

As to “YXQGTFCSDYSKYLDERRAKDFVQWLMNT (Y[Aib]QGTFCSDYSKYLDERRAKDFVQWLMNT; lactam 16-20) [SEQ ID NO: 41]”, the “In vitro activity (relative activity to SEQ ID NO: 1, %)” value was 45.2%.

For “YXQGTFCSDYSKYLDERRAKEFVQWLMNT (Y[Aib]QGTFCSDYSKYLDERRAKEFVQWLMNT; lactam 16-20) [SEQ ID NO: 38]”, the “In vitro activity (relative activity to SEQ ID NO: 1, %)” value came out at 167.3%.

On to “YXQGTFCSDYSKYLDSRRAQDFVQWLMNT (Y[Aib]QGTFCSDYSKYLDSRRAQDFVQWLMNT) [SEQ ID NO: 42]”, for which the “In vitro activity (relative activity to SEQ ID NO: 1, %)” value is 37.9%.

Take “YXQGTFTSDCSKYLDERRAKEFVQWLMNT (Y[Aib]QGTFTSDCSKYLDERRAKEFVQWLMNT; lactam 16-20) [SEQ ID NO: 36]”: the “In vitro activity (relative activity to SEQ ID NO: 1, %)” value came to 9.9%.

Regarding “YXQGTFTSDCSKYLDSRRAQDFVQWLMNT (Y[Aib]QGTFTSDCSKYLDSRRAQDFVQWLMNT) [SEQ ID NO: 43]”, the “In vitro activity (relative activity to SEQ ID NO: 1, %)” value was 1.6%.

Turning to “YXQGTFTSDYSCYLDSRRAQDFVQWLMNT (Y[Aib]QGTFTSDYSCYLDSRRAQDFVQWLMNT) [SEQ ID NO: 13]”, the “In vitro activity (relative activity to SEQ ID NO: 1, %)” value is reported as 5.2%.

As to “YXQGTFTSDYSKCLDEKRAKEFVQWLMNT (Y[Aib]QGTFTSDYSKCLDEKRAKEFVQWLMNT; lactam 16-20) [SEQ ID NO: 24]”, the “In vitro activity (relative activity to SEQ ID NO: 1, %)” value worked out at 58.0%.

Turning to “YXQGTFTSDYSKCLDERRAKDFVQWLMNT (Y[Aib]QGTFTSDYSKCLDERRAKDFVQWLMNT; lactam 16-20) [SEQ ID NO: 29]”, the “In vitro activity (relative activity to SEQ ID NO: 1, %)” value worked out at 61.3%.

Consider “YXQGTFTSDYSKYCDEKRAKEFVQWLMNT (Y[Aib]QGTFTSDYSKYCDEKRAKEFVQWLMNT; lactam 16-20) [SEQ ID NO: 23]”, for which the “In vitro activity (relative activity to SEQ ID NO: 1, %)” value amounted to 76.8%.

Regarding “YXQGTFTSDYSKYCDERRAKEFVQWLMNT (Y[Aib]QGTFTSDYSKYCDERRAKEFVQWLMNT; lactam 16-20) [SEQ ID NO: 35]”, the “In vitro activity (relative activity to SEQ ID NO: 1, %)” value amounted to 17.7%.

For “YXQGTFTSDYSKYLCEKRAKEFVQWLMNT (Y[Aib]QGTFTSDYSKYLCEKRAKEFVQWLMNT; lactam 16-20) [SEQ ID NO: 19]”, the “In vitro activity (relative activity to SEQ ID NO: 1, %)” value is recorded as 12.1%.

“YXQGTFTSDYSKYLCEKRAQDFVVWLMNT (Y[Aib]QGTFTSDYSKYLCEKRAQDFVVWLMNT) [SEQ ID NO: 15]”: the “In vitro activity (relative activity to SEQ ID NO: 1, %)” value is reported as 1.1%.

With “YXQGTFTSDYSKYLDCKRAKEFVQWLMNT (Y[Aib]QGTFTSDYSKYLDCKRAKEFVQWLMNT; lactam 17-21) [SEQ ID NO: 31]”, the “In vitro activity (relative activity to SEQ ID NO: 1, %)” value is given as 6.3%.

As to “YXQGTFTSDYSKYLDCKRAKEFVQWLMNT [SEQ ID NO: 14] (Y[Aib]QGTFTSDYSKYLDCKRAKEFVQWLMNT; not fully specified (bridges); also: lactam ring between underlined residues, places not shown)”, the “In vitro activity (relative activity to SEQ ID NO: 1, %)” value is on record as 18.1%.

“YXQGTFTSDYSKYLDCRRAQVFVQWLMRT (Y[Aib]QGTFTSDYSKYLDCRRAQVFVQWLMRT) [SEQ ID NO: 16]”: the “In vitro activity (relative activity to SEQ ID NO: 1, %)” value is recorded as 4.2%.

For “YXQGTFTSDYSKYLDCVRAQDFVQWLMRT (Y[Aib]QGTFTSDYSKYLDCVRAQDFVQWLMRT) [SEQ ID NO: 17]”, the “In vitro activity (relative activity to SEQ ID NO: 1, %)” value came to 23.2%.

For the substance “YXQGTFTSDYSKYLDECRAKEFVQWLMNT (Y[Aib]QGTFTSDYSKYLDECRAKEFVQWLMNT; lactam 16-20) [SEQ ID NO: 20]”, the “In vitro activity (relative activity to SEQ ID NO: 1, %)” value was found to be 299.7%.

Turning to “YXQGTFTSDYSKYLDEKCAKEFVQWLMNT [SEQ ID NO: 11] (Y[Aib]QGTFTSDYSKYLDEKCAKEFVQWLMNT; not fully specified (bridges); also: lactam ring between underlined residues, places not shown)”, the “In vitro activity (relative activity to SEQ ID NO: 1, %)” value is on record as 4.6%.

Regarding “YXQGTFTSDYSKYLDEKCAKEFVQWLMNT [SEQ ID NO: 21] (Y[Aib]QGTFTSDYSKYLDEKCAKEFVQWLMNT; lactam 16-20)”, the “In vitro activity (relative activity to SEQ ID NO: 1, %)” value amounted to 57.8%.

Regarding “YXQGTFTSDYSKYLDEKRAKCFVQWLMNT (Y[Aib]QGTFTSDYSKYLDEKRAKCFVQWLMNT; lactam 16-20) [SEQ ID NO: 25]”, the “In vitro activity (relative activity to SEQ ID NO: 1, %)” value stood at 46.9%.

As for “YXQGTFTSDYSKYLDEKRAKEFVQWLMNTC (Y[Aib]QGTFTSDYSKYLDEKRAKEFVQWLMNTC; lactam 16-20) [SEQ ID NO: 12]”, the “In vitro activity (relative activity to SEQ ID NO: 1, %)” value is 56.3%.

Take “YXQGTFTSDYSKYLDEKRCKEFVQWLMNT (Y[Aib]QGTFTSDYSKYLDEKRCKEFVQWLMNT; lactam 16-20) [SEQ ID NO: 22]”: the “In vitro activity (relative activity to SEQ ID NO: 1, %)” value was found to be 147.8%.

Turning to “YXQGTFTSDYSKYLDERRAKEFVQWLMNTC (Y[Aib]QGTFTSDYSKYLDERRAKEFVQWLMNTC; lactam 16-20) [SEQ ID NO: 37]”, the “In vitro activity (relative activity to SEQ ID NO: 1, %)” value is recorded as 225.5%.

As for “YXQGTFTSDYSKYLDSCDADDFVVWLINT (Y[Aib]QGTFTSDYSKYLDSCDADDFVVWLINT) [SEQ ID NO: 10]”, the “In vitro activity (relative activity to SEQ ID NO: 1, %)” value is on record as less than 0.1%.

For the substance “YXQGTFTSDYSKYLDSCDAQDFVQWLINT (Y[Aib]QGTFTSDYSKYLDSCDAQDFVQWLINT) [SEQ ID NO: 8]”, the “In vitro activity (relative activity to SEQ ID NO: 1, %)” value was less than 0.1%.

Consider “YXQGTFTSDYSKYLDSCDAQDFVVWLINT (Y[Aib]QGTFTSDYSKYLDSCDAQDFVVWLINT) [SEQ ID NO: 9]”, for which the “In vitro activity (relative activity to SEQ ID NO: 1, %)” value is less than 0.1%.

In the case of “YXQGTFTSDYSKYLDSRRACDFRLWLMNT (Y[Aib]QGTFTSDYSKYLDSRRACDFRLWLMNT) [SEQ ID NO: 18]”, the “In vitro activity (relative activity to SEQ ID NO: 1, %)” value is on record as less than 0.1%.

Consider “YXQGTFTSDYSKYLDSRRAQDFVQWLMNT (X non-natural residue; glucagon derivative; (2) Xaa is aminoisobutyric acid (Aib)) [SEQ ID NO: 33]”, for which the “In vitro activity (relative activity to SEQ ID NO: 1, %)” value came out at 108.2%.

As for “YXQGTFTSDYSKYLDSRRAQDFVQWLMNTC (glucagon derivative; (2) Xaa is aminoisobutyric acid (Aib)) [SEQ ID NO: 44]”, the “In vitro activity (relative activity to SEQ ID NO: 1, %)” value is reported as 75.4%.

“YXQGTFVSDCSKYLDERRAKDFVQWLMNT (Y[Aib]QGTFVSDCSKYLDERRAKDFVQWLMNT; lactam 16-20) [SEQ ID NO: 39]”: the “In vitro activity (relative activity to SEQ ID NO: 1, %)” value is on record as 3.7%.

Take “YXQGTFVSDYSKYLDECRAKDFVQWLMNT (Y[Aib]QGTFVSDYSKYLDECRAKDFVQWLMNT; lactam 16-20) [SEQ ID NO: 27]”: the “In vitro activity (relative activity to SEQ ID NO: 1, %)” value came out at 93.6%.

Take “YXQGTFVSDYSKYLDERRAKDFVQWLMNTC (Y[Aib]QGTFVSDYSKYLDERRAKDFVQWLMNTC; lactam 16-20) [SEQ ID NO: 40]”: the “In vitro activity (relative activity to SEQ ID NO: 1, %)” value was found to be 40.8%.
